This is an account of results in article PMC5336394 (Structure (London, England : 1993), 2017).

Among the targets are CypA^V29T (UniProt P62937 1-165, V29T); CypA^V6A (UniProt P62937 1-165, V6A); CypA^V29L (UniProt P62937 1-165, V29L); CypA^V29A (UniProt P62937 1-165, V29A); CypA^V6TV29L (UniProt P62937 1-165, V6T | V29L); CypA^V6S (UniProt P62937 1-165, V6S); CypA^V6I (UniProt P62937 1-165, V6I); CypA^V6T (UniProt P62937 1-165, V6T); cyclophilin A (UniProt P62937 1-165); CypA^V6L (UniProt P62937 1-165, V6L).

Common to all, as to test: NMR titration

Chain of CypA^V6T (P62937 whole entry V6T): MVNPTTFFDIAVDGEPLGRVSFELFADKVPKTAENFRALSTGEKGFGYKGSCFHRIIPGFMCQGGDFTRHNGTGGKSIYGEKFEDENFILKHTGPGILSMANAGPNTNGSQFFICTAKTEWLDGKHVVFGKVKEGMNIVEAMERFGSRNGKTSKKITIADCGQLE
Chain of CypA^V29A (P62937 whole entry V29A): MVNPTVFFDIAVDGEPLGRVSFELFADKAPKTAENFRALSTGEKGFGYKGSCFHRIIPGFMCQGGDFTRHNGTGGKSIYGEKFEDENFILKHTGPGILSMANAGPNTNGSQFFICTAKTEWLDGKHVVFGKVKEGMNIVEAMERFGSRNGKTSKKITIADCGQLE
Chain of CypA^V29L (P62937 whole entry V29L): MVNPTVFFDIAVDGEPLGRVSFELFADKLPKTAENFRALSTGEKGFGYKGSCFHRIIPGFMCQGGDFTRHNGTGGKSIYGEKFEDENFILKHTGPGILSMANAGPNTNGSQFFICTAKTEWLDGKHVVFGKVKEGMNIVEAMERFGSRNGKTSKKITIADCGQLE
Chain of CypA^V6I (P62937 whole entry V6I): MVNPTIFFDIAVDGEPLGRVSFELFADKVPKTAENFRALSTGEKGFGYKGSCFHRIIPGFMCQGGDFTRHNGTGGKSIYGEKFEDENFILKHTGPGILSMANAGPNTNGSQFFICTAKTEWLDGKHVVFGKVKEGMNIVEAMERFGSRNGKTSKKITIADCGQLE
Chain of cyclophilin A (P62937 whole entry): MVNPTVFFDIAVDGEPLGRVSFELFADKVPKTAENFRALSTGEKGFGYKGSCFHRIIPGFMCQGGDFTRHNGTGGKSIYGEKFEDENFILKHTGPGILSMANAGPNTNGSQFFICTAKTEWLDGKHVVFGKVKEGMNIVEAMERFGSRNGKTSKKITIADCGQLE
Chain of CypA^V6TV29L (P62937 whole entry V6T/V29L): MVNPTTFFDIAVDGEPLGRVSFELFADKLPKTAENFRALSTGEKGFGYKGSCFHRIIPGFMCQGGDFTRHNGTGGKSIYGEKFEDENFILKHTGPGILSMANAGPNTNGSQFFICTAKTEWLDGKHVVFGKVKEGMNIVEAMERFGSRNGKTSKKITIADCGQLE
Chain of CypA^V6A (P62937 whole entry V6A): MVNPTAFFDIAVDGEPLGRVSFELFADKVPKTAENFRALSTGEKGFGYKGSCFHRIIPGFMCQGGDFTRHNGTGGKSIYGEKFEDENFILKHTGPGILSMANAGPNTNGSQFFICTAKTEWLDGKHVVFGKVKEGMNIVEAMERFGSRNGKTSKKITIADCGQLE
Chain of CypA^V6S (P62937 whole entry V6S): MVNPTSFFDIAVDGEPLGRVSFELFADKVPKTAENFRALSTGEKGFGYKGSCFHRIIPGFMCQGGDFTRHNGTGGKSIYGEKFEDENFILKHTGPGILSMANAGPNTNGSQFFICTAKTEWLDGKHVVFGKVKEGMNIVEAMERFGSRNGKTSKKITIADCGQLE
Chain of CypA^V29T (P62937 whole entry V29T): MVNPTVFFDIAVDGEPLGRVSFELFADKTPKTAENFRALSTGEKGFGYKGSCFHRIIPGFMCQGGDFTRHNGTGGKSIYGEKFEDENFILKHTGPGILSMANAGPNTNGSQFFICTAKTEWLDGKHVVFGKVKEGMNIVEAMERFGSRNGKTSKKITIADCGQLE
Chain of CypA^V6L (P62937 whole entry V6L): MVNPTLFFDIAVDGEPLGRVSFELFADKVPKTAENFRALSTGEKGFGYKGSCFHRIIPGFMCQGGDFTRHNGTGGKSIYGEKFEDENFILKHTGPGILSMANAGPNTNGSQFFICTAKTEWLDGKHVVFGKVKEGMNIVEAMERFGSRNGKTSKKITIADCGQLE

Consider GSFGPDLRAGD [FGP peptide], for which the Kd (as a rule, the constant that tells how readily two partners part at equilibrium) in the assay with CypA^V29T turned out to be 73 µM; with CypA^V6A it was 82 µM; with CypA^V29L, 38 µM; with CypA^V29A it was 57 µM; in the assay with CypA^V6TV29L, 37 µM; in the assay with CypA^V6S, 65 µM. Also, the Kd with CypA^V6I was 86 µM; in the assay with CypA^V6T, 48 µM; in the assay with cyclophilin A, 76 µM; with CypA^V6L, 69 µM.
